Changes are numbered by the printed parent chain.
B1: PD-1 variant polypeptide, clone S5.4 (receptor)
chain: NPPTFSPALLVVTEGDNATFTCSFSNTSESFVLNWYRMSPSNQTDKLAAFPEDRGQPGRDSRFRVTQLPNGRDFRMSVVRARRSDSGTYLCSAILLAPKIQIKESLGAELRVTEKGAE
B2: PD-1 variant polypeptide, clone S5.1 (receptor)
chain: B1 chain with P57L, R59Q, R75H, L95V, G107R, A108V, K115R, G116R
B3: PD-1 variant polypeptide, clone S6.12.6 (receptor, not shown: large carriers)
chain: B1 chain with M38I, P57L, R59Q, R75H, K99R, K103R, A108V, G116R
B4: PD-1 variant polypeptide, clone S6.8.3 (receptor)
chain: B1 chain with P57L, R59Q, D60A, R75H, K99R, K103R, G107R, A108V, K115R, G116R
B5: PD-1 variant polypeptide, clone S6.12.9 (receptor)
chain: B1 chain with P57L, R59Q, R75H, L95V, K99R, G107R, A108V, K115R, G116R
B6: PD-1 variant polypeptide, clone S5.7 (receptor)
chain: B1 chain with P57L, R59Q, R75H, G107R, A108V, K115R, G116R
B7: PD-1 variant polypeptide, clone S5.1k (receptor)
chain: B1 chain with N1D, G55S, R59Q, R75H, S84D, S92G, L95S, G107R, K115R, G116R
B8: PD-1 variant polypeptide, clone S5.2i (receptor)
chain: NPPTFSPALLVVAEGDNATFTCSFSNTSESFVLNWYRMSPSNQTDKLAAFPEDRSQPGQDRRFRVTQLPSGRDFHMSVVRARRNDSGTYLCGAIFLAPRIQIKESLRAELRVTERRAE
B9: PD-1 variant polypeptide, clone S5.1p (receptor)
chain: B1 chain with N1D, G55S, R59Q, R75H, S84N, S92G, K99R, K103R
B10: PD-1 variant polypeptide, clone S5.1f (receptor)
chain: NPPTFSPALLVVTEGDNATFTCSFSNTSESFVLNWYRVSPSNQTDKLAAFPEDRSRPGQDSRFRVTRLPNGRDFHMSVVGARRSDSGTYLCGAISLAPKVQIKESLRAELRVTERRAE
B11: PD-1 variant polypeptide, clone S5.1g (receptor)
chain: B8 chain with A13T, T27A, N42D, S55G, P57L, R61S, S70N, F95S, R99K
B12: PD-1 variant polypeptide, clone S5.1i (receptor)
chain: B10 chain with V38M, R56Q, R67Q, H75R, G80R, G92S
B13: PD-1 variant polypeptide, clone S5.2q (receptor)
chain: B10 chain with N1S, F5L, A18V, V38M, S55G, R56Q, Q59R, R67Q, G80R, S84N
B14: PD-1 variant polypeptide, clones S5.1j, S5.1o (receptor)
chain: B10 chain with V38M, R56Q, R67Q, G80R, S84N, A108V
B15: PD-1 variant polypeptide, clone S5.2s (receptor)
chain: B10 chain with V38M, N42S, R56Q, R67Q, G80R, A93V, T113I
B16: PD-1 variant polypeptide, clone S5.1q (receptor)
chain: B10 chain with V38M, R56Q, P57L, R67Q, G80R, S84N, K103R, A108V
B17: PD-1 variant polypeptide, clone S5.1c (receptor)
chain: B10 chain with V38M, S55G, R56Q, T66I, R67Q, G80R, S84N
B18: PD-1 variant polypeptide, clone S5.2d (receptor)
chain: B10 chain with V38M, N42D, R67Q, S84N, K103R
B19: PD-1 variant polypeptide, clone S5.1e (receptor)
chain: B10 chain with V38M, R56Q, R67Q, G80R, T113I
B20: PD-1 variant polypeptide, clone S5.1n (receptor)
chain: B10 chain with V38M, R56Q, R67Q, G80R, R83G, S84D, A108V

Each binder was assayed against T1, human PD-L1-Fc chimeric protein (human, UniProt Q9NZQ7 19-238) (assay: flow cytometry of yeast-displayed clone with soluble PD-L1-Fc at 5 nM or 0.5 nM).
T1 construct: extracellular domain; Recombinant protein; also called soluble PD-L1-Fc; not shown: Fc region of human IgG1, fused at the C-terminus
Description: (§1) Binding was allowed to proceed for 3 hours at room temperature at which time yeast were pelleted, washed twice to remove unbound PD-L1-Fc, and stained with a fluorescently labeled secondary antibody to detect the Fc of bound PD-L1. Secondary labeling was performed for 30 minutes on ice, after which yeast were pelleted and washed as described. Yeast samples were then analyzed on a flow cytometer to quantify PD-L1-Fc binding.
(§2) FIG. 4 provides a graph of the FACS data.

T1 sequence (Q9NZQ7 19-238, change not shown): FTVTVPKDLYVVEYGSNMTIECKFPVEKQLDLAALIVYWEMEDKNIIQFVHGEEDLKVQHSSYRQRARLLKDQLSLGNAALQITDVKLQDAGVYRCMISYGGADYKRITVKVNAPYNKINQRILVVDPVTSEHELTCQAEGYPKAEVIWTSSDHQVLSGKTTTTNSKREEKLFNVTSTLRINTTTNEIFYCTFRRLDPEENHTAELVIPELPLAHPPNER

binding result	Binder
binds	B1

What follows are binders tested against T1, human PD-L1-Fc chimeric protein (assay: flow cytometry of yeast-displayed clone with soluble PD-L1-Fc (S5.1 tested at 0.5 nM only, see paragraph 221)).
Description: as §1, §2

binding result	Binder
binds	B2

These binders were tested against T1, human PD-L1-Fc chimeric protein (assay: flow cytometry of yeast-displayed clone, FIG. 2 (0.5 nM PD-L1-Fc) and FIG. 3 (5 nM, also bound strongly)).
Description: as §1, §2

binding result	Binder
binds	B3
binds	B4
binds	B5
binds	B6

The binders below were run against T1, human PD-L1-Fc chimeric protein (assay: yeast display, clone sequenced from the pool after five FACS sorts on PD-L1-Fc; measured as a pool, not singly).
Description: In these sorts, yeast were incubated at room temperature in phosphate-buffered saline with 1 mg/ml BSA (PBSA) and with the following nominal concentrations of PD-L1-Fc: for sort 1, 250 nM; sort 2, 20 nM; sort 3, 1 nM; sort 4, 0.1 nM; sort 5, 0.1 nM. PD-L1 Fc refers to a human PD-L1-Fc chimeric protein. This recombinant protein contains the extracellular domain of human PD-L1 fused to the Fc region of human IgG1 at the C-terminus. After incubation with PD-L1-Fc, yeast were pelleted, washed, and resuspended in PBSA with chicken anti-cMYC for 1 hour at 4° C. After primary antibody incubation, yeast were once again washed and secondary labeling was performed on ice for 30 minutes using PBSA with goat anti-chicken Alexa Fluor 555 and goat anti-human IgG Alexa Fluor 488. Each sort was conducted such that the 1-3% of clones with the highest PD-L1 binding/cMyc expression ration were selected, thereby enriching the library for clones with the highest affinity. In the first round, 1×10⁸ cells were screened, and in subsequent rounds a minimum of ten-fold the number of clones collected in the prior sort round were screened to ensure adequate sampling of diversity.
Samples were analyzed using a FACScalibur flow cytometer and data was analyzed using FlowJo software.

binding result	Binder
binds	B7
binds	B8
binds	B9
binds	B10
binds	B11
binds	B12
binds	B13
binds	B14
binds	B15
binds	B16
binds	B17
binds	B18
binds	B19
binds	B20
